B4: Met4 72-160 (domain or fragment, yeast, UniProt P32389 72-160, looked up)
chain: VTNRGNTNLYDHAVTPEILLEQLAYVDNFIPSLDNEFSNVDWNVNTTHNNANNNGADTFSSINANPFDLDEQLAIELSAFADDSFIFPD

The target of assay [1] is T1, Med15 ABD1,2,3 (Med15 158-651 Δ239-272, Δ373-483) (yeast, UniProt P19659 158-651, Δ239-272 | Δ373-483).
T1 sequence (looked up): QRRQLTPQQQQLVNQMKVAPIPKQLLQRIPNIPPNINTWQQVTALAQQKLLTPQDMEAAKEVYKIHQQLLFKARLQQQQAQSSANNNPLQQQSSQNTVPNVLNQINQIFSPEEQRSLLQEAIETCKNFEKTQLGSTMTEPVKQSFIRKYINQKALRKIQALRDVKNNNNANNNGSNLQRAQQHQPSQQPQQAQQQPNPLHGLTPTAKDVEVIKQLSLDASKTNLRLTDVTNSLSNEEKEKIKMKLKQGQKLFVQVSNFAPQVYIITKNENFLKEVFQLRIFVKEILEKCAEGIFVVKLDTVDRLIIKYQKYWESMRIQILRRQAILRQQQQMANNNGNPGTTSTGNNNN
The assay can be described thus: fluorescence polarisation.

Assay [2] deals with T2, Med15 KIX+ABD1,2,3 (Med15 1-651 Δ239-272, Δ373-483) (yeast, UniProt P19659 1-651, Δ239-272 | Δ373-483).
T2 sequence (looked up): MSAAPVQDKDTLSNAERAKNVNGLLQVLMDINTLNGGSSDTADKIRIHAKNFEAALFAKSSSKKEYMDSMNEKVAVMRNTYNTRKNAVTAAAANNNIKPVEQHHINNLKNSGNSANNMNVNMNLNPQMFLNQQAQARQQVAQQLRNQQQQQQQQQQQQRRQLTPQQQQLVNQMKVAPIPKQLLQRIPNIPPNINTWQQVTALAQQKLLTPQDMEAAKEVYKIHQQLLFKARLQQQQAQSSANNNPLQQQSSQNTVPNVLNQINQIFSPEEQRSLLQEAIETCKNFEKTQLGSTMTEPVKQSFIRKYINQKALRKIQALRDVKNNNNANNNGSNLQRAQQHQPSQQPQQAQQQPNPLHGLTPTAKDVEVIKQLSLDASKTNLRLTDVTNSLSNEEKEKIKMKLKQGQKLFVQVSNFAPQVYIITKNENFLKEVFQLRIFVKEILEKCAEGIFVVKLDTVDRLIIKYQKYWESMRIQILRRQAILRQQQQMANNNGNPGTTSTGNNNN
The assay can be described thus: fluorescence polarisation. (In general: Polarisation of emitted light reports the rotation of a fluorescent probe.)

The target of assay [3] is T3, Med15 ABD3 (Med15 484-651) (yeast, UniProt P19659 484-651).
T3 sequence (looked up): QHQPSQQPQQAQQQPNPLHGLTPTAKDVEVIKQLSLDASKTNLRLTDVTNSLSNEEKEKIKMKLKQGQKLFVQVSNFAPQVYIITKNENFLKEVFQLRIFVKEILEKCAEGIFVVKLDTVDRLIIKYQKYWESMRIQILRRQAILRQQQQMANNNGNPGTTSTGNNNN
The assay is described as follows: fluorescence polarisation.

The target in assay [4] is T4, Med15 ABD2 (Med15 277-368) (yeast, UniProt P19659 277-368).
T4 sequence (looked up): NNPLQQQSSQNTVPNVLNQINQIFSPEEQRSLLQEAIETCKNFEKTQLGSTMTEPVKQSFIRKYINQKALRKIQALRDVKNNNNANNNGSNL
The assay is described as follows: ITC.

Assay [5] has as its target T3, Med15 ABD3 (Med15 484-651). The assay can be described thus: ITC.
The assay “Met4 72-160” has as its target B4. The assay is described as follows: ITC. On the technique in general: ITC needs no label: the signal is the heat of the interaction.
Assay [6] addresses T2, Med15 KIX+ABD1,2,3 (Med15 1-651 …). The assay can be described thus: cross-linking.

B1: Oregon Green-labeled Ino2 1-41-(GS)3-96-160 (domain or fragment, yeast)
chain: MQQATGNELLGILDLDNDIDFETAYQMLSSNFDDQMSAHIHGSGSGSPHQPSMGFDQALGLKLSPSSSGLLSTNESNAIEQFLDNLISQDMMSSNASMNSESHLHIRSPKKQ
modifications: Oregon Green 488 dye, N-terminal fluorescent label
On to B1, for which the equilibrium dissociation constant (Kd) in assay [1] was roughly 300 nM; in assay [2] it was 210 nM. The binding result in assay [3] is “binds”.

B2: Ino2 1-41-(GS)3-96-160 (domain or fragment, yeast)
chain: MQQATGNELLGILDLDNDIDFETAYQMLSSNFDDQMSAHIHGSGSGSPHQPSMGFDQALGLKLSPSSSGLLSTNESNAIEQFLDNLISQDMMSSNASMNSESHLHIRSPKKQ
Turning to B2, the figures for the equilibrium dissociation constant (Kd) in assay [4] and in assay [5] were 34000 nM and 7800 nM, respectively.

B3: Med15 ABD1 (Med15 158-238) (domain or fragment, yeast, UniProt P19659 158-238, looked up)
chain: QRRQLTPQQQQLVNQMKVAPIPKQLLQRIPNIPPNINTWQQVTALAQQKLLTPQDMEAAKEVYKIHQQLLFKARLQQQQAQ
Consider B3, for which the binding result in the assay with Met4 72-160 is “binds”.

Turning to B4, in assay [6], the binding result is recorded as “binds”. In addition, the dissociation constant (Kd) in assay [4] was determined as 20000 nM; in assay [5], 1360 nM.

B5: Oregon Green-labeled Met4 72-160 (domain or fragment, yeast, UniProt P32389 72-160, looked up)
chain: VTNRGNTNLYDHAVTPEILLEQLAYVDNFIPSLDNEFSNVDWNVNTTHNNANNNGADTFSSINANPFDLDEQLAIELSAFADDSFIFPD
modifications: Oregon Green 488 dye, N-terminal fluorescent label
For the molecule B5, the dissociation constant Kd in assay [1] is roughly 300 nM; in assay [2], 196 nM. Also, the binding result in assay [3] is on record as “binds”.

For orientation: Kd means the concentration at which binding is half-saturated.
